Reference: article PMC8452523 (Cell Reports, 2021)

B1: P5C3 human monoclonal antibody (antibody, V domains shown)
VH: QMQLVQSGPEVKKPGTSVKVSCKASGFTFTSSAVQWVRQARGQRLEWIGWIVVGSGNTDYAQQFQERVTITRDMSTSTAYMELSSLGSEDTAVYYCAAPNCSGGSCYDGFDLWGQGTMVTVSS
VL: EIVLTQSPGTLSLSPGERATLSCRGSQSVRSSYLGWYQQKPGQAPRLLIYGASSRATGIPDRFSGSGSGTDFTLTISRLEPEDFAVYYCQQYGSSPWTFGQGTKVEIK
B2: REGN10933 (antibody, V domains shown)
VH: QVQLVESGGGLVKPGGSLRLSCAASGFTFSDYYMSWIRQAPGKGLEWVSYITYSGSTIYYADSVKGRFTISRDNAKSSLYLQMNSLRAEDTAVYYCARDRGTTMVPFDYWGQGTLVTVSS
VL: DIQMTQSPSSLSASVGDRVTITCQASQDITNYLNWYQQKPGKAPKLLIYAASNLETGVPSRFSGSGSGTDFTFTISGLQPEDIATYYCQQYDNLPLTFGGGTKVEIK
B3: REGN10987 (antibody, V domains shown)
VH: QVQLVESGGGVVQPGRSLRLSCAASGFTFSNYAMYWVRQAPGKGLEWVAVISYDGSNKYYADSVKGRFTISRDNSKNTLYLQMNSLRTEDTAVYYCASGSDYGDYLLVYWGQGTLVTVSS
VL: QSALTQPASVSGSPGQSITISCTGTSSDVGGYNYVSWYQQHPGKAPKLMIYDVSKRPSGVSNRFSGSKSGNTASLTISGLQSEDEADYYCNSLTSISTWVFGGGTKLTVL

These binders were tested against Spike RBD protein (SARS-CoV-2, UniProt P0DTC2) (assay: Luminex bead-based competitive binding assay).
B1: binds. B2: binds. B3: binds.
